Measured values reported in article PMC11236199.

Key:
[1] = target: civet SARS CoV 007/2004 spike protein ectodomain (civet SARS CoV 007/2004 | bacteriophage T4); test: cryo-EM structure
[2] = target: civet SARS CoV SZ3/2003 spike protein ectodomain (civet SARS CoV SZ3/2003 | bacteriophage T4); test: cryo-EM structure

| Substance | stoichiometry N [1] | stoichiometry N [2] |
| --- | --- | --- |
| civet SARS CoV 007/2004 spike protein ectodomain (domain or fragment) | 3 |  |
| civet SARS CoV SZ3/2003 spike protein ectodomain (domain or fragment) |  | 3 |
